Biological target: FMRP (UniProt Q06787)
Assay: biotin-RNA affinity capture
Conditions: 50 mM Tris-HCl pH 7.4, 2 mM MgCl2, 150 mM KCl, 1 mM EDTA, 1 mM DTT (Schaeffer buffer without tRNA, supplemented with 125 mM NaCl); SoftLink avidin resin …; scale: fold more RNA needed than eEF-1A mRNA for comparable binding

BC1 RNA, annealed
fold more RNA needed than eEF-1A mRNA: 100
